# Test results taken from the nanobody polyreactivity screen of Harvey et al. (2022).
# Experiment: yeast display, Sf9 membrane polyspecificity reagent, FACS + sequencing; frameworks hold sequencing errors
# In short: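 After 36–48 hours of galactose induction, yeast (Saccharomyces cerevisiae BJ5465) displaying a synthetic nanobody library were stained at 4 °C for 1 hour with 10% biotinylated, detergent-solubilized Sf9 membrane reagent. Streptavidin microbeads enriched the stained cells before FACS sorting into low and high (top ~1%) gates on anti-HA and streptavidin fluorescence. Each clone's polyreactivity label reflects its gate of origin.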
row,Sequence,polyreactivity (PSR sort gate)
1,QVQLVESGGGLVQAGGSLRLTCAASGSIFYSYAMGWYRQAPGKERELVAAISWDASTYYADSVNGRFTISRDNAKNTVYLQMHSLKPEDSAVYYCNADIPYFFVFDAYDYWGQGTQVTVSS,low polyreactivity
2,QVQLVESGGGLVQAGGSLRLSCAASGRTFGYNAMGWYRQAPGKERELVAAIRYSGGSTYYADSVKGRFTISRDNAKNTVYLQMNSLKPEDTAVYYCAKETRRYYRGYYYWGQGTQVTVSS,high polyreactivity
3,QVQLVESGGGLGQARGSLRLSRAASGSPFEYNAMGWYRPAPGKERELVASSTNYADSVKGRFTISRDNAKNTVYLQMNSLKPEVTAVNSCAREPGVNRNHDYWGQGSQVTVSS,low polyreactivity
4,QVQLVESGGGLVQAGGSLRLSCAASGRIFTCYAMGWYRQAPGKERELVAAISSAGRTYYADSVKGRFTISRDNAKNTVYLQMNSLKPEDSAVYYCAKVSKYRHFYTFDYWGQGTQVTVSS,high polyreactivity
5,QVQLVESGGGLVQAGGSLRLSCDASGSTFSYYAMGGYRQAPGKERELVAAISGRGGSTYYADSVKGRFTISRDNAKNTVYLQMNSLKPEDTAVYYCAKGRLYTAYGLYSWGQGTQVTVSS,high polyreactivity
6,QVQLVESGGGLVQAGGSLRLSCAASGSTFVVNAMGCYRQAPGKERELVAAITQSGGSTFYADSVKGRFTISRDNAKNTVYLQMNSLKPEDTAVYYWGQGTQVTVSS,low polyreactivity
7,QVQLVESGGGLVQAGGSLRLSCAASGFTFRWYDMGWYRQAPGKERELVAVISRSGGRTYYADSVKGRFTISRDNAKNTVYLQMNSLKPEDTAVYYCAADWWGYDGRYDYWGQGTQVTVSS,high polyreactivity
8,QVQLVESGGGLVQAGGSLRLSCAASGRTFVHYTMGWYRQAPGKERELVATISTSGGSTSYADSVKGRFTISRDNAKNTVYVQMNSLKPEDTAVYYCAARWYFPDRVKYVYWGQGTQVTVSS,low polyreactivity
9,QVQLVESGGGLVQAGGSLRLSCADSGRTFVTTAMGWYRQAPGKERELVAAIDGGGDRTYYADTVKVRFTISRDYAKYTVYLQMNSLKPEDSAVYYCNKDRGTLYGDMDSWGQGTQVTVSS,low polyreactivity
10,QDQLVESGGGLVQAGGSLRLSCAASGRTFSRYTMGWYRQAPGKERELVAAISKRGGSTYYADSVKGRLTISRDNAKNTVYLQMNSLKPADTAVYYCNAYGLVGLDGVKMYYWGQGTQVTVSS,high polyreactivity
11,QVQLVESGGGLVQAGGSVRLSCAASGRIFGYYAMGWYRQAPGKERELVAAINWNVGSTYYADSVKGRFTISRDNAKNTVYLQMNSLKPEDTAVYYCAAVGRYSRLLGKYDYWGQGTQVTVSS,low polyreactivity
12,QVQLVESGGGLVQAGGSLRLSCDASGGTFPYYAMGWYRQATGKERELVPDISGTDGSTYYADSVKGRFTISRDNANYTVYLQMNSLKPEDTAVYYCNADPHWWYWDYDYWGQGTQVTVSS,high polyreactivity
13,QVQLVESGGGLVQAGGSLRLSCAASGRIFKYYGMGWYRQAPGKESELVAAITRGDSTNYADSVKGRFTISRDNAKNTVYLQMNSLKPEDTAVYYCNVGTRRGYDYWGQGTQVTVSS,high polyreactivity
14,QVQLVESGGGLVQAGGSLRLSCAASGSTRRYVMGWYRQAPWKERELVAAISYSGGSTYYADSVKGRFTISRDNAKNTVYLQMNSLKPEDTAVYYCAADGYSGQYGGHMGYWGQGTQVTVSS,high polyreactivity
15,QVQLVESGGGLVQAGGSLRLSCAASGRTFGGYAMGWYRQAPGKESELVARISRSGGSTYYADSVKGRFTISRDNAKNTVYLQMNSLKPEDTAVYYCNTGLRNAYGWPQDDYWGQGTQVTVSS,low polyreactivity
16,QVQLVESGGGLVQAGGSLRLSCAASGSIFIRNAKGWYRQAPGKERELVAAISTIGGRTYYADSVKGRFTISRDNAKNTVYLQMNSLKPEDTAVYYCAAEQGTPSTNWYDYWGQGTQVTVSS,low polyreactivity
17,QVQLVESGGGLVQAGGSLRLSCAASGLTFSVYAMGWYRQAPGKERELVAAITSSGRTYYADSVKGRFTISRDNAKNTVYLQMNSLKPEDTAVYYCAAGYKSGPRRYYYWGQGTQVTVSS,high polyreactivity
18,QVQLVESGGGLVQAGGSLRLSCAASGNIFYINTMGWYRQEPGKERELVDAIDASDGSTYYADSVKGRFTISRDNAKNTVYLQMNSLKPEDTAVYYFASRRGYDSVYYFYTLWYYYWGQGTQVTVSS,low polyreactivity
19,QVHHVESVGGLVQAGGILRLSSAASGRTFDRYAMGWYRQEPGKERELVAAISSGGSTYYADSVKGRFTISRDNAKNTVYLQMNSLKPEDTADYYCNAGKTFDFRDGVGYDHWGQGTQVTVSS,low polyreactivity
20,QVQLVESGGGLVQAGGSLRLSCSASGITFIYYMGWYIQAPGKERELVAAITWSGGSTYYADSVKGRFTISRDNAKNTVYLQMNSLKPEDTAVYYCAAVRRAEEYDYCGQGTQVTVSS,low polyreactivity
21,QVQLVESGGGLVQAGGSLRLSCAASGRISDDYAMGWYRQAPGKERELVADITSGGNTYYADSVKGRFTISRDNAKNTVYLQMNSLKPEDTAVYYCNAYYVGYIRYWTNKLVDYWGQGTQVTVSS,high polyreactivity

row,Sequence,polyreactivity (PSR sort gate)
1,QVQLVESGGGIVQAGGSLRLSCAASGRNFTFYAMGWYRQAPGKERELVAAITKSGGSTYYADSVKGRFTISRDNAKNTVYLQMNSLKPEDTAVYYCAAGNHRRPADYGSWGQGTQVTVSS,low polyreactivity
2,QVQLVESGGGLVQAGGSLRLSCAASGSIFGTYAMGWYRQAPGKERELVARISGGGSTYYADSVKGRFTISRDNAKNTVYLQMNSLKPEDTAVYYCNVRKWAYWSHAIIYNYWGQGTQVTVSS,high polyreactivity
3,QVQLVESGGGLVQARGSLRLSCAASGRIFNYYAMGWYRQAPGKERELVAAISGSGGRTYYADSVKGRFTISRDNAKNTVYLQMNSLKPEDTAVYYCAADGVDGYDYWGLGTQVTVSS,high polyreactivity
4,QVQLVESGGGLVQAGGSLRLSCAASGRTFPGYAMGWYRQAPGKERELVAGISYRGGSTYYADSVKGRITISRDIAKNSVYLQMISLKPEDTAVYFCARDYSRHKGDLWGQGTQVTVSS,low polyreactivity
5,QVQLVESGGGLVQAGGILRLSCASSGITFRQYAMEWYRQAPGKERELVATITSRGGSTYYADSVKGRFTISRDNAKNSVYLQMISLKPEDTADYYCAAKTPTKDRGSDFDYWGQCTQVTVSS,high polyreactivity
6,QVQLVDSGGGLVQAGGSLRLSCAASGITFNSYVMGLYRQAPGKERELVAVISRGGGITYYADSVKGRFTISRDNAKNTVYLQMNSLKPEDTAVSYCAADHTHGYVLYYNDNYWGQGTQVTVSS,high polyreactivity
7,QVQLVESGGGLVQAGGSLRLSCAASGITFQSNAMGWYRQAPGKERELVAGISGSGTSTYYADSVKGRFTISRDNAKNTVYLQMNSLKPEDTAVYYCAAAQSKYSFYWGDYYYWGQGTQVTVSS,high polyreactivity
8,QVQLVESGGGLVQAGGSLRLSCAASGIIFSDYAMGWYRQAPGKERELVAAITGGGSTYYADSVKGRFTISRDNAKNTVYLQMNRLKPEDTAVYYCNADWARLLIRSTEFDYWGQGTQVTVSS,low polyreactivity
9,QVQLVESGGGLVQAGGSLRFICAASGFLFRAYTMGWYRQAPGKERELVAAITSSGGRTYYADSVKGRFSISRDNAKNTVFLQMNSLKPEDTAVYYCATVYAKWKQFDSWGQGTQVNVSS,high polyreactivity
10,QVQLVESGGGLVQAGGSLRLSCAASGRIFKAYAMGWYRQAPGKERELVAAITSTGSTYYADSVKGRFTISRDNAKNTVYLQMNSLKPEDTAVYSCARRPSYYQGDYWGQGTQVTVSS,high polyreactivity
11,QVQLVESGGGLVQAGGSLRLSCAASGSTLVYYDMGWSRQAPGKERELVATITGTDSTYYADSVKGRFTISRDNAKNTVYLQMNSLKPEDTADCAADRAASRPDYDYWGQGTQVTVSS,low polyreactivity
12,QVQLVESGGGLVQAGGSLRLSCAASGIIFKQNVMGWYRQAPGKERELVAAITSRDGSTYYADSVKGRFTISRDNAKNTVYLQMNSLKPEDTAVYYCAAKWRSPRYYLYGYWGQGTQVTVSS,high polyreactivity
13,QVQLVESGGGLVQAGGSLRLSCAASGNTFGRYAMGWSRQAPGKEREFVAAIRWRGATTYYADSVKRRFTISRDNAKNPVDLQMNSMKPEDTAVYYCAAYYWGQGTGFDYWGQGTQVTVSS,high polyreactivity
14,QVQLGESAGGLVQAGGSLRLSCAATGRTFRWYTMGWYRQAPGKERELVAGIRSTGGSTYYADSVKGRFTISRDNAKNTVYLQMNSLKPEDTEVYYCAIVTLTSRYASYYYWGQGTQVTVSS,high polyreactivity
15,QVQLVESGGGLVQAGGSLRLSCAASGYIFPGNAMGWYRQAPGKERELVAAINWSGTRTYYADSVKGRFTISRDNAKNTVYLQLNSLKPEDTAVYYCNRVWRVPIETYTRYDYWGQGTQVTVSS,high polyreactivity
16,QVQLVESGGGLVQAGGSLRLSCAASGFTFGHNDMGWYRQAPGKERELVASITQSGGSTYYADSVKGRFTISRDNAKNTVYLQMNSLKPEDTAVYYCAKDLYQSAFITKYDYWGQGTQVTVSS,low polyreactivity
17,QVQLVESGGGLVQAGGSLRLSCAASGYIIGRYVMGWYRQAPGNERELVAAITASGGSTNYADSVKGRFTISRDNAKNTVYLQMNSLKPEDTAVYYCAADYSWYYFDFEYWGQGTQVTVSS,high polyreactivity
18,QVQLVESGGGLVQAGGSLRLSCAASASIFDDNAMGWYRQAPGKERELVAGISRGGSTNYADSVKGRFTISRDNAKNTVYLQMNSLKPEDTAVYYCNKRYKPSWTTYDYWGQGTQVTVSS,low polyreactivity
19,QVNLVETGGGLVQAVCSLRLSCAASGSIFGIYTMGWYRQAPGKERELVAAINSGGSTIYADSVKGRFTISRDNAKNTVYLQMNSLKPEDSAVYYWIAYIHPPGPRVYSREYDYWGQGTQLTVSS,low polyreactivity
20,QVQLVESGGGLVQAGGSLRLSCAASGRTFRRNAMGWYRQAPGKERELVAPISRGGSTNYADSVKGRFSISRDNAKNTVYLQMNSMKPEDTAVFYCAARYYYRYNYWGQGTQVTVSS,high polyreactivity
